Experimental data published in patent publication US20120244166A1 (published 2012).

B1: 2 (Heavy chain: G54S) (antibody, V domains shown)
VH: QVQLVQSGGQMKKPGESMRISCRASGYEFIDCTLNWIRLAPGKRPEWMGWLKPRGGAVNYARPLQGRVTMTRDVYSDTAFLELRSLTVDDTAVYFCTRGKNCDYNWDFEHWGRGTPVIVSS
VL: EIVLTQSPGTLSLSPGETAIISCRTSQYGSLAWYQQRPGQAPRLVIYSGSTRAAGIPDRFSGSRWGPDYNLTISNLESGDFGVYYCQQYEFFGQGTKVQVDI
B2: Insertion-AA (antibody, V domains shown)
VH: QVQLVQSGGQMKKPGESMRISCRASGYEFIDCTLNWIRLAPGKRPEWMGWLKPRGGAVNYARPLQGRVTMTRDVYSDTAFLELRSLTVDDTAVYFCTRGKNCDYNWDFEHWGRGTPVIVSS
VL: EIVLTQSPGTLSLSPGETAIISCRTSQYGSAALAWYQQRPGQAPRLVIYSGSTRAAGIPDRFSGSRWGPDYNLTISNLESGDFGVYYCQQYEFFGQGTKVQVDI
B3: C32AC98S (antibody, V domains shown)
VH: QVQLVQSGGQMKKPGESMRISCRASGYEFIDSTLNWIRLAPGKRPEWMGWLKPRGGAVNYARPLQGRVTMTRDVYSDTAFLELRSLTVDDTAVYFCTRGKNADYNWDFEHWGRGTPVIVSS
VL: EIVLTQSPGTLSLSPGETAIISCRTSQYGSLAWYQQRPGQAPRLVIYSGSTRAAGIPDRFSGSRWGPDYNLTISNLESGDFGVYYCQQYEFFGQGTKVQVDI
B4: 2F5 L100AS-V100DS (antibody, V domains shown)
VH: RITLKESGPPLVKPTQTLTLTCSFSGFSLSDFGVGVGWIRQPPGKALEWLAIIYSDDDKRYSPSLNTRLTITKDTSKNQVVLVMTRVSPVDTATYFCAHRRGPTTSFGSPIARGPVNAMDVWGQGITVTISS
VL: ALQLTQSPSSLSASVGDRITITCRASQGVTSALAWYRQKPGSPPQLLIYDASSLESGVPSRFSGSGSGTEFTLTISTLRPEDFATYYCQQLHFYPHTFGGGTRVDVRR
B5: 2F5 L100AW-V100DW (antibody, V domains shown)
VH: RITLKESGPPLVKPTQTLTLTCSFSGFSLSDFGVGVGWIRQPPGKALEWLAIIYSDDDKRYSPSLNTRLTITKDTSKNQVVLVMTRVSPVDTATYFCAHRRGPTTWFGWPIARGPVNAMDVWGQGITVTISS
VL: ALQLTQSPSSLSASVGDRITITCRASQGVTSALAWYRQKPGSPPQLLIYDASSLESGVPSRFSGSGSGTEFTLTISTLRPEDFATYYCQQLHFYPHTFGGGTRVDVRR
B6: 2F5 (antibody, V domains shown)
VH: RITLKESGPPLVKPTQTLTLTCSFSGFSLSDFGVGVGWIRQPPGKALEWLAIIYSDDDKRYSPSLNTRLTITKDTSKNQVVLVMTRVSPVDTATYFCAHRRGPTTLFGVPIARGPVNAMDVWGQGITVTISS
VL: ALQLTQSPSSLSASVGDRITITCRASQGVTSALAWYRQKPGSPPQLLIYDASSLESGVPSRFSGSGSGTEFTLTISTLRPEDFATYYCQQLHFYPHTFGGGTRVDVRR
B7: 2F5 V100DS (antibody, V domains shown)
VH: RITLKESGPPLVKPTQTLTLTCSFSGFSLSDFGVGVGWIRQPPGKALEWLAIIYSDDDKRYSPSLNTRLTITKDTSKNQVVLVMTRVSPVDTATYFCAHRRGPTTLFGSPIARGPVNAMDVWGQGITVTISS
VL: ALQLTQSPSSLSASVGDRITITCRASQGVTSALAWYRQKPGSPPQLLIYDASSLESGVPSRFSGSGSGTEFTLTISTLRPEDFATYYCQQLHFYPHTFGGGTRVDVRR
B8: 2F5 I100FS (antibody, V domains shown)
VH: RITLKESGPPLVKPTQTLTLTCSFSGFSLSDFGVGVGWIRQPPGKALEWLAIIYSDDDKRYSPSLNTRLTITKDTSKNQVVLVMTRVSPVDTATYFCAHRRGPTTLFGVPSARGPVNAMDVWGQGITVTISS
VL: ALQLTQSPSSLSASVGDRITITCRASQGVTSALAWYRQKPGSPPQLLIYDASSLESGVPSRFSGSGSGTEFTLTISTLRPEDFATYYCQQLHFYPHTFGGGTRVDVRR
B9: 2F5 L100AS (antibody, V domains shown)
VH: RITLKESGPPLVKPTQTLTLTCSFSGFSLSDFGVGVGWIRQPPGKALEWLAIIYSDDDKRYSPSLNTRLTITKDTSKNQVVLVMTRVSPVDTATYFCAHRRGPTTSFGVPIARGPVNAMDVWGQGITVTISS
VL: ALQLTQSPSSLSASVGDRITITCRASQGVTSALAWYRQKPGSPPQLLIYDASSLESGVPSRFSGSGSGTEFTLTISTLRPEDFATYYCQQLHFYPHTFGGGTRVDVRR
B10: 2F5 V100DW (antibody, V domains shown)
VH: RITLKESGPPLVKPTQTLTLTCSFSGFSLSDFGVGVGWIRQPPGKALEWLAIIYSDDDKRYSPSLNTRLTITKDTSKNQVVLVMTRVSPVDTATYFCAHRRGPTTLFGWPIARGPVNAMDVWGQGITVTISS
VL: ALQLTQSPSSLSASVGDRITITCRASQGVTSALAWYRQKPGSPPQLLIYDASSLESGVPSRFSGSGSGTEFTLTISTLRPEDFATYYCQQLHFYPHTFGGGTRVDVRR
B11: 2F5 F100BS (antibody, V domains shown)
VH: RITLKESGPPLVKPTQTLTLTCSFSGFSLSDFGVGVGWIRQPPGKALEWLAIIYSDDDKRYSPSLNTRLTITKDTSKNQVVLVMTRVSPVDTATYFCAHRRGPTTLSGVPIARGPVNAMDVWGQGITVTISS
VL: ALQLTQSPSSLSASVGDRITITCRASQGVTSALAWYRQKPGSPPQLLIYDASSLESGVPSRFSGSGSGTEFTLTISTLRPEDFATYYCQQLHFYPHTFGGGTRVDVRR
B12: 2F5 F100BS-I100FS (antibody, V domains shown)
VH: RITLKESGPPLVKPTQTLTLTCSFSGFSLSDFGVGVGWIRQPPGKALEWLAIIYSDDDKRYSPSLNTRLTITKDTSKNQVVLVMTRVSPVDTATYFCAHRRGPTTLSGVPSARGPVNAMDVWGQGITVTISS
VL: ALQLTQSPSSLSASVGDRITITCRASQGVTSALAWYRQKPGSPPQLLIYDASSLESGVPSRFSGSGSGTEFTLTISTLRPEDFATYYCQQLHFYPHTFGGGTRVDVRR
B13: 2F5 F100BW (antibody, V domains shown)
VH: RITLKESGPPLVKPTQTLTLTCSFSGFSLSDFGVGVGWIRQPPGKALEWLAIIYSDDDKRYSPSLNTRLTITKDTSKNQVVLVMTRVSPVDTATYFCAHRRGPTTLWGVPIARGPVNAMDVWGQGITVTISS
VL: ALQLTQSPSSLSASVGDRITITCRASQGVTSALAWYRQKPGSPPQLLIYDASSLESGVPSRFSGSGSGTEFTLTISTLRPEDFATYYCQQLHFYPHTFGGGTRVDVRR
B14: 2F5 L100AS-F100BS (antibody, V domains shown)
VH: RITLKESGPPLVKPTQTLTLTCSFSGFSLSDFGVGVGWIRQPPGKALEWLAIIYSDDDKRYSPSLNTRLTITKDTSKNQVVLVMTRVSPVDTATYFCAHRRGPTTSSGVPIARGPVNAMDVWGQGITVTISS
VL: ALQLTQSPSSLSASVGDRITITCRASQGVTSALAWYRQKPGSPPQLLIYDASSLESGVPSRFSGSGSGTEFTLTISTLRPEDFATYYCQQLHFYPHTFGGGTRVDVRR
B15: 2F5 L100AW (antibody, V domains shown)
VH: RITLKESGPPLVKPTQTLTLTCSFSGFSLSDFGVGVGWIRQPPGKALEWLAIIYSDDDKRYSPSLNTRLTITKDTSKNQVVLVMTRVSPVDTATYFCAHRRGPTTWFGVPIARGPVNAMDVWGQGITVTISS
VL: ALQLTQSPSSLSASVGDRITITCRASQGVTSALAWYRQKPGSPPQLLIYDASSLESGVPSRFSGSGSGTEFTLTISTLRPEDFATYYCQQLHFYPHTFGGGTRVDVRR

biological target: Du156.12; experiment: ELISA

Going from B1 to B2, the EC50 rises from 0.072 µg/mL to 2.02 µg/mL (28-fold).

With B3 the EC50 was 0.048 µg/mL.

biological target: gp41 MPER peptide (residues 657 to 669 of gp41 linked to a C-terminal C9 tag); experiment: SPR

Compared with B4, B5 is 2.9-fold lower in Kd: 36.7 nM for the first, 12.8 nM for the second. The second binds more tightly here.

Going from B6 to B7, the Kd rises from 9.5 nM to 14.3 nM (1.5-fold). The first binds more tightly here.

Going from B8 to B9, the Kd falls from 27.3 nM to 10.8 nM (2.5-fold).

B10 and B11 are the same in Kd: 11.9 nM for the first, 11.9 nM for the second.

Going from B12 to B13, the Kd falls from 46.9 nM to 11.2 nM (4.2-fold). The second binds more tightly here.

B14 and B15 are within 1.5-fold of each other in Kd: 10.9 nM for the first, 11.3 nM for the second.
